The values below come from paper PMC3390244.

The target of the series is human transferrin receptor (hTfR, CD71) (human, UniProt P02786 89-760). The series is described as follows: filter binding.
human transferrin receptor (hTfR, CD71), sequence (P02786 89-760): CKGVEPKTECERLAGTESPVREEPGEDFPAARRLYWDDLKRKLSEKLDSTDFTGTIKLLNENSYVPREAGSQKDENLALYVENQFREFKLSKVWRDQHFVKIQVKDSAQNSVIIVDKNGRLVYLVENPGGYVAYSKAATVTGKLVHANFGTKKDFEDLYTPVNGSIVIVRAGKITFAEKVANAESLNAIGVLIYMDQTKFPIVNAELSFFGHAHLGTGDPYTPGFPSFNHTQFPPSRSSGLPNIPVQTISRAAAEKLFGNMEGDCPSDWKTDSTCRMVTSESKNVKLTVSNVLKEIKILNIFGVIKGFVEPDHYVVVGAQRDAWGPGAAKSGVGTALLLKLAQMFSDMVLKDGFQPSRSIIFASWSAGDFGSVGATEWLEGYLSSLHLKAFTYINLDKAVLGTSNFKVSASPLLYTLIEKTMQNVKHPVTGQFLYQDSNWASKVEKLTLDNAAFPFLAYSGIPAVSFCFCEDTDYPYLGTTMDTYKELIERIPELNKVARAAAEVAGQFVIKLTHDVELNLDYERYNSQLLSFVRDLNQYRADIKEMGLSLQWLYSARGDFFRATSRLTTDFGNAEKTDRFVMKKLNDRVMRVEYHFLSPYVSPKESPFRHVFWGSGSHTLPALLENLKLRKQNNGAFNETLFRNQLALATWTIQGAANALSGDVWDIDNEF

B1: c2.min (structured_RNA)
RNA: GGGGGAUCAAUCCAAGGGACCCGGAAACGCUCCCUUACACCCC
modifications: 2'-fluoro C and U; 3' inverted dT; 5' thiol
Molecule B1 had a Kd of 102 nM.

For orientation: Kd means the equilibrium constant for the complex coming apart. Read a low Kd as a tighter complex.
